Experimental data published in US11311610B2, “Immune-modulating agents and uses therefor” (UNIVERSITY OF TECHNOLOGY SYDNEY, priority 2010, dated 2022).

B1: FhHDM-1: 90-residue polypeptide from F. hepatica, Helminth Defense Molecule-1 (SEQ ID NO:24); recombinant form minus N-terminal signal peptide, expressed in E. coli (protein, listed as Fasciola hepatica)
chain: MRFIVLLCLAEVLLAAYVEARPSEESREKLRESGRKMVKALRDAVTKAYEKARDRAMAYLAKDNLGEKITEVITILLNRLTDRLEKYAGN

Experiments:
[1] = test system: immune cell invasion of pancreatic islets; experiment: Insulitis in NOD mouse model of type 1 diabetes; format: in vivo; details: NOD mice, 6 injections every second day from 5 weeks, sacrificed at 10 weeks
From the text: Non-obese diabetic (NOD) mice (model of Type 1 diabetes) were given 6 injections (on every second day) of proteinaceous compound beginning at 5 weeks of age and animals were sacrificed at 10 weeks of age (i.e. when insulitis develops). Subsequently, formalin-fixed, paraffin-embedded pancreata was stained with haematoxylin and eosin to assess islet inflammation (i.e., insulitis).
Islet insulitis was scored as 0 (healthy islet), 1 (peri-insulitis up to 25% of islet occupied by leukocytes), 2 (leukocytic infiltration from 25% up to 50% of islet mass), 3 (leukocytic infiltration from 50% up to 75% of islet mass) or 4 (less than 25% of islet mass present). Accordingly, the greater the percentage of islets with higher insulitis scores the worse the prognosis for diabetes development would be for that animal.

[2] = test system: inflammatory response to bacterial lipopolysaccharide; experiment: Inflammatory response to LPS in vivo after HDM pre-treatment; details: BALB/c mice, 1 μg i.p. 2 h before 1 μg LPS, 4 h later
Procedure: Female BALB/c mice were given 1 μg of FhHDM-1 i.p. and 2 h later given 1 μg of E. coli LPS i.p. After another 4 h, mice were sacrificed and serum and peritoneal macrophages assessed for the presence of inflammatory cytokines.
Female BALB/c mice (n=5) were given a single intraperitoneal injection of 1 μg of recombinant HDM two hours prior to an intraperitoneal injection of 1 μg of E. coli lipopolysaccharide. Four hours later, mice were sacrificed and blood and peritoneal cells were harvested. Peritoneal macrophages were isolated from lavage fluid based upon their adherent properties, and cultured overnight at 37° C. in RPMI supplemented with FCS. The quantities of inflammatory cytokines in both sera and culture media from macrophages were measured by ELISA.

[3] = test system: primary human macrophages; experiment: Proteomics analysis of treated macrophages; format: cell-based
From the text: FIG. 11 is a diagrammatic representation showing a Venn diagram of soluble proteins identified in primary human macrophages.

[4] = test system: human monocytes; experiment: Activation marker expression on stimulated human monocytes (flow cytometry); format: cell-based; details: human monocytes stimulated 40 h with 10 μg/mL
[5] = of 237 proteins present in both samples

Molecule | immune cell invasion of pancreatic islets (insulitis) [1] | IL-12 secreted by peritoneal macrophages [2] | TNFα secreted by peritoneal macrophages [2] | levels of IL-10 in circulation [2] | quantity of TNFα in sera [2] | lysosomal proteins of primary macrophages [3] | number of proteins down-regulated following treatment [3, 5] | number of proteins up-regulated following treatment [3, 5] | KEGG pathways in primary human macrophages (Table 5) ([3]; proteomic analysis) | number of proteins uniquely expressed in the treated sample ([3]; versus PBS-treated sample) | expression of markers of alternative activation (CD163 and CD206) [4] | expression of markers of the classical phenotype (CD86 and HLA-DR) [4]
KARDRAMAYLAKDNLGEKITEVITILLNRL (FhHDM-1 peptide 1 comprising a truncated amphipathic helix contained in FhHDM-1) [FhHDM-1 p1, peptide in which the amphipathic helix is truncated] | no significant activity |  |  |  |  |  |  |  |  |  |  | 
B1 |  | significantly less | significantly less | significantly reduced | also reduced this did not reach significance | down-regulates | 44 | 42 | down-regulated | 6 | increased expression | decreased expression
